From EP2605788B1

Legend:
Experiment in all cases: cell-based or functional assay
CD20 (human) = CD20 (human) (UniProt P11836)
CD74 (human) = CD74 (human) (UniProt P04233)
CD22 (human) = CD22 (human) (UniProt P20273)

Chain of CD20 (human) (P11836 whole entry): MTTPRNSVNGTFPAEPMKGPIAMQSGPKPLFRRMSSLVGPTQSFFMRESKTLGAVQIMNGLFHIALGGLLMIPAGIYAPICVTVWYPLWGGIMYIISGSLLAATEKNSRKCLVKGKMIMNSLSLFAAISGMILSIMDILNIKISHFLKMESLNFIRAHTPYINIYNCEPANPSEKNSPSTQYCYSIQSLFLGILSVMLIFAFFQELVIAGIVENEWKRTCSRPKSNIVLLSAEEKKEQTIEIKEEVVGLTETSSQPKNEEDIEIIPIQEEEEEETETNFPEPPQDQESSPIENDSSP
Chain of CD74 (human) (P04233 whole entry): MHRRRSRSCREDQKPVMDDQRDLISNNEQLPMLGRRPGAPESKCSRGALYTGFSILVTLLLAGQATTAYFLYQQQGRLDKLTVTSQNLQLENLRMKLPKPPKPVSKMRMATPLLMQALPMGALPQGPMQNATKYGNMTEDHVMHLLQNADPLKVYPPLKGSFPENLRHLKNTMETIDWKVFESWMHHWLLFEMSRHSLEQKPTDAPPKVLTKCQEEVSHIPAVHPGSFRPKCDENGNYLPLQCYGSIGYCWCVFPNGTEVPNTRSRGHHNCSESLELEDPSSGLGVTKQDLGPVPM

20-(74)-(74) (bispecific antibody) gave a homotypic adhesion (%), JeKo-1, 10 nM, 2 h (CD20 (human)) of 90%, a homotypic adhesion (%), JeKo-1, 10 nM, 24 h (CD20 (human)) of over 95% and an EC50, MTS assay, CLL (WAC, MEC-1), ALL (REH-1, MN60) and MM (CAG, RPMI8226, KMS11, KMS12-BM, KMS12-PE) lines (CD74 (human)) of over 100 nM. For the same substance, the homotypic adhesion (%), JeKo-1, 10 nM, 2 h (CD74 (human)) was 90% and the homotypic adhesion (%), JeKo-1, 10 nM, 24 h (CD74 (human)) was over 95%.

Substance 20-Rap has an EC50, in vitro cytotoxicity, Daudi and Ramos (CD20 (human)) of 0.1 nM, an EC50, in vitro cytotoxicity, Jeko-1 (CD20 (human)) of 0.02 nM and a fold more potent than 22-Rap, in vitro cytotoxicity, Jeko-1 (CD20 (human)) of 25 fold. For the same substance, the in vitro cytotoxicity, NHL cell lines (CD20 (human)) was over 1 nM.

With 22-Rap the in vitro cytotoxicity, NHL cell lines (CD22 (human)) was over 1 nM.

Substance 74-(20)-(20) (bispecific antibody) has a homotypic adhesion (%), JeKo-1, 10 nM, 2 h (CD20 (human)) of 90%, a homotypic adhesion (%), JeKo-1, 10 nM, 24 h (CD20 (human)) of over 95% and an EC50, MTS assay, CLL (WAC, MEC-1), ALL (REH-1, MN60) and MM (CAG, RPMI8226, KMS11, KMS12-BM, KMS12-PE) lines (CD74 (human)) of over 100 nM. The homotypic adhesion (%), JeKo-1, 10 nM, 2 h (CD74 (human)) was 90% and the homotypic adhesion (%), JeKo-1, 10 nM, 24 h (CD74 (human)) was over 95%.
